These results are taken from US20140161790A1 (Xencor, published 2014).

The koff is the rate constant with which the complex falls apart. The Kd is a measure of binding affinity in units of concentration. A high value points to lower affinity. As usually defined, the kon is the second-order rate constant of association. Higher therefore signals fast association.

Assay [1] addresses T1, human FcRn (heterodimer of alpha chain and beta2-microglobulin) (human, UniProt P55899 24-297; P61769 21-119, limits assumed).
T1 construct: Co-expressed in HEK293T cells; also called hFcRn; human neonatal Fc receptor
The experiment in a line: SPR, FcRn coupled directly to CM5 chip, antibody analyte at 200 nM bound at pH 6.0, dissociation at pH 7.4; avid format, relative values only.

The target of assay [2] is T1, human FcRn (heterodimer of alpha chain …). In words: SPR as above, pH 6.0; fold KD against native IgG1.
Assay [3] shares this target. In words: SPR (Biacore 3000), antibody captured on immobilized VEGF, human FcRn as analyte, pH 6.0, 1:1 Langmuir fit. (In general: SPR reads the build-up and loss of mass on a sensor chip optically.)

T1 sequence (P55899 24-297 limits assumed, chain 1 of 2): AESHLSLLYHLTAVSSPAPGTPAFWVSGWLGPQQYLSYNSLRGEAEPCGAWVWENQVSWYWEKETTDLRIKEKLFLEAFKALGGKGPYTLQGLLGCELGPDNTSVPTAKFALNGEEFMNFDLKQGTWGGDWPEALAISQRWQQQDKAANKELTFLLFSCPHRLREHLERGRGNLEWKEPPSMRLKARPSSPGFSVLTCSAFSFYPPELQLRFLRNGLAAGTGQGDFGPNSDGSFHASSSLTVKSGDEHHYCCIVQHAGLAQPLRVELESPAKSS
T1 sequence (P61769 21-119 limits assumed, chain 2 of 2): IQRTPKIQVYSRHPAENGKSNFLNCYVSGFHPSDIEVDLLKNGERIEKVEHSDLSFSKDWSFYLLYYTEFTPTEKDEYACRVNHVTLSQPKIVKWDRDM

B1: bevacizumab IgG1 Fc variant N434S (antibody)
heavy: not shown
light: not shown
notes: copies: 2 + 2
In assay [1], B1 showed a koff of 0.29 s⁻¹.

B2: bevacizumab IgG1 Fc variant V259I/V308F/M428L (antibody)
heavy: EVQLVESGGGLVQPGGSLRLSCAASGYTFTNYGMNWVRQAPGKGLEWVGWINTYTGEPTYAADFKRRFTFSLDTSKSTAYLQMNSLRAEDTAVYYCAKYPHYYGSSHWYFDVWGQGTLVTVSSASTKGPSVFPLAPSSKSTSGGTAALGCLVKDYFPEPVTVSWNSGALTSGVHTFPAVLQSSGLYSLSSVVTVPSSSLGTQTYICNVNHKPSNTKVDKKVEPKSCDKTHTCPPCPAPELLGGPSVFLFPPKPKDTLMISRTPEITCVVVDVSHEDPEVKFNWYVDGVEVHNAKTKPREEQYNSTYRVVSVLTFLHQDWLNGKEYKCKVSNKALPAPIEKTISKAKGQPREPQVYTLPPSREEMTKNQVSLTCLVKGFYPSDIAVEWESNGQPENNYKTTPPVLDSDGSFFLYSKLTVDKSRWQQGNVFSCSVLHEALHNHYTQKSLSLSPGK
light: not shown
notes: also called IFL; copies: 2 + 2
Take B2: the “Fold KD” value in assay [2] amounted to 19.8 fold. For the same molecule, in assay [3], binding was characterised by a dissociation constant (Kd) of 124 nM, the koff is 0.0238 s⁻¹ and the on-rate (kon) is 192000 M⁻¹ s⁻¹. In assay [1], this molecule returned a koff of 0.13 s⁻¹.

B3: bevacizumab IgG1 Fc variant V259I/V308F (antibody)
heavy: not shown
light: not shown
notes: also called IF; copies: 2 + 2
For the molecule B3, in assay [2], the “Fold KD” value came out at 5.8 fold. Besides, in assay [3], binding was characterised by a dissociation constant (Kd) of 424 nM, the koff was determined as 0.0752 s⁻¹ and the kon turned out to be 178000 M⁻¹ s⁻¹. The molecule also displayed a koff in assay [1] of 0.6 s⁻¹.

B4: bevacizumab IgG1 Fc variant M428L/N434S (antibody)
heavy: not shown
light: not shown
notes: also called LS; LS bevacizumab variant; copies: 2 + 2
As to B4, in assay [1], the koff came out at 0.33 s⁻¹.

B5: bevacizumab IgG1 Fc variant M252Y/S254T/T256E (antibody)
heavy: EVQLVESGGGLVQPGGSLRLSCAASGYTFTNYGMNWVRQAPGKGLEWVGWINTYTGEPTYAADFKRRFTFSLDTSKSTAYLQMNSLRAEDTAVYYCAKYPHYYGSSHWYFDVWGQGTLVTVSSASTKGPSVFPLAPSSKSTSGGTAALGCLVKDYFPEPVTVSWNSGALTSGVHTFPAVLQSSGLYSLSSVVTVPSSSLGTQTYICNVNHKPSNTKVDKKVEPKSCDKTHTCPPCPAPELLGGPSVFLFPPKPKDTLYITREPEVTCVVVDVSHEDPEVKFNWYVDGVEVHNAKTKPREEQYNSTYRVVSVLTVLHQDWLNGKEYKCKVSNKALPAPIEKTISKAKGQPREPQVYTLPPSREEMTKNQVSLTCLVKGFYPSDIAVEWESNGQPENNYKTTPPVLDSDGSFFLYSKLTVDKSRWQQGNVFSCSVMHEALHNHYTQKSLSLSPGK
light: not shown
notes: also called YTE; copies: 2 + 2
As to B5, the “Fold KD” value in assay [2] was 7.24 fold. In assay [3], this molecule came in with a dissociation constant (Kd) of 340 nM, a koff of 0.0549 s⁻¹ and a kon of 162000 M⁻¹ s⁻¹. In assay [1], this molecule yielded a koff of 0.32 s⁻¹.
